Experimental data published in the supplement of paper PMC10598134.
± gives the standard deviation.

Experiment: collision cross section of modified peptide (TIMS, N2, iRT-aligned); higher = larger / more extended gas-phase ion
Procedure, shortened: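 Values are averages of 1–3 technical replicates of the most abundant feature for each charge state. Collision cross section was obtained from the Mason-Schamp equation after 1/K0 calibration with three reference ions and run-wise alignment to the median iRT peptide deviation. Synthetic peptide pools (iRT standard spiked 1:40) were separated on a 120-min nanoflow C18 gradient at 60 °C, analysed on a timsTOF Pro/HT (dda-PASEF, nitrogen, ~2.4 mbar) and identified with MaxQuant.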

[1] = charge state: 3, modification: GlyGly (K)
[2] = charge state: 2, modification: Crotonyl
[3] = charge state: 2, modification: Succinyl
[4] = charge state: 3, modification: Succinyl
[5] = charge state: 2, modification: Dimethyl (K)
[6] = charge state: 3, modification: Dimethyl (K)
[7] = charge state: 2, modification: Phospho (Y)
[8] = charge state: 2, modification: Propionyl
[9] = charge state: 2, modification: Malonyl
[10] = charge state: 2, modification: Formyl
[11] = charge state: 3, modification: Formyl
[12] = charge state: 2, modification: HexNAc (ST)
[13] = charge state: 2, modification: hydroxyisobutyryl
[14] = charge state: 3, modification: hydroxyisobutyryl
[15] = charge state: 2, modification: Glutarylation
[16] = charge state: 3, modification: Glutarylation
[17] = charge state: 3, modification: Trimethyl (K)
[18] = charge state: 2, modification: Acetyl (K)
[19] = charge state: 2, modification: Butyryl
[20] = charge state: 2, modification: Nitro (Y)
[21] = charge state: 3, modification: Nitro (Y)
[22] = charge state: 3, modification: Methyl (R)
[23] = charge state: 3, modification: Propionyl
[24] = charge state: 2, modification: Methyl (K)
[25] = charge state: 3, modification: Methyl (K)
[26] = charge state: 2, modification: Citrullination (R)
[27] = charge state: 2, modification: Methyl (R)
[28] = charge state: 3, modification: Malonyl
[29] = charge state: 2, modification: Trimethyl (K)
[30] = charge state: 2, modification: Hydroxyproline

VFSIISSEKELK [_VFSIISSEK(GlyGly (K))ELK_]
collision cross section (charge state: 2, modification: GlyGly (K)): 424.98 ± 0.97 Å²
collision cross section [1]: 493.89 ± 2 Å²

DLSTVEALQNLKNLK [_DLSTVEALQNLK(Crotonyl)NLK_]
collision cross section [2]: 484.33 ± 1.1 Å²

GFALVGVGSEASSKK [_GFALVGVGSEASSK(Succinyl)K_]
collision cross section [3]: 413.38 ± 0.54 Å²
collision cross section [4]: 497.13 ± 2.5 Å²

GTISAPGKVVTAAAQAK [_GTISAPGK(Dimethyl (K))VVTAAAQAK_]
collision cross section [5]: 470.82 ± 0.68 Å²
collision cross section [6]: 493.04 ± 1.7 Å²

VETTVTSLKTK [_VETTVTSLK(Crotonyl)TK_]
collision cross section [2]: 389.71 ± 0.89 Å²

LQLEIDQKK [_LQLEIDQK(Dimethyl (K))K_]
collision cross section [5]: 364.14 ± 0.52 Å²
collision cross section [6]: 427.16 ± 2.1 Å²

VETFSGVYK [_VETFSGVY(Phospho (Y))K_]
collision cross section [7]: 345.95 ± 0.75 Å²

LGSASSSHGSIQESHK [_LGS(HexNAc (ST))ASSSHGSIQESHK_]
collision cross section (charge state: 3, modification: HexNAc (ST)): 519.96 ± 0.18 Å²

DYSSGFGGKYGVQADR [_DYSSGFGGK(Propionyl)YGVQADR_]
collision cross section [8]: 432.72 Å²

VDIDVPDVNIEGPDAKLK [_VDIDVPDVNIEGPDAK(Malonyl)LK_]
collision cross section [9]: 474.57 Å²

DAIHFYNKSLAEHR [_DAIHFYNK(Formyl)SLAEHR_]
collision cross section [10]: 447.82 Å²
collision cross section [11]: 498.82 ± 2.2 Å²

SAGSVESPSVSSTHR [_SAGSVESPSVS(HexNAc (ST))STHR_]
collision cross section [12]: 412.88 ± 0.14 Å²

SLFFGGKGAPLQR [_SLFFGGK(hydroxyisobutyryl)GAPLQR_]
collision cross section [13]: 408.12 ± 0.55 Å²
collision cross section [14]: 482.11 Å²

GTITVSAQELKDNR [_GTITVSAQELK(Gluratylation)DNR_]
collision cross section [15]: 422.99 ± 0.48 Å²
collision cross section [16]: 483.37 ± 1.7 Å²

INNFSADIKDSK [_INNFSADIK(hydroxyisobutyryl)DSK_]
collision cross section [13]: 408.19 ± 0.53 Å²
collision cross section [14]: 466.44 ± 1.1 Å²

LDEKENLSAK [_LDEK(Dimethyl (K))ENLSAK_]
collision cross section [5]: 364.75 ± 0.28 Å²
collision cross section [6]: 441.27 Å²

FSAYIKNSNPALNDNLEK [_FSAYIK(Trimethyl (K))NSNPALNDNLEK_]
collision cross section [17]: 516.88 ± 0.87 Å²

LEKTIDDLEEK [_LEK(Acetyl (K))TIDDLEEK_]
collision cross section [18]: 403.37 ± 1 Å²

SLFFGGKGAPLQR [_SLFFGGK(Acetyl (K))GAPLQR_]
collision cross section [18]: 401.47 ± 0.85 Å²

ASEALLKQLK [_ASEALLK(Gluratylation)QLK_]
collision cross section [15]: 377.97 ± 0.1 Å²

DLGKFQVATDALK [_DLGK(hydroxyisobutyryl)FQVATDALK_]
collision cross section [13]: 409.13 ± 0.55 Å²

ANLEKAQAELVGTADEATR [_ANLEK(Butyryl)AQAELVGTADEATR_]
collision cross section [19]: 479.49 ± 1.1 Å²
collision cross section (charge state: 3, modification: Butyryl): 578.23 ± 2 Å²

GVEAVGSYAENQR [_GVEAVGSY(Nitro (Y))AENQR_]
collision cross section [20]: 377.43 ± 0.17 Å²
collision cross section [21]: 473.04 ± 0.83 Å²

GGNFGGRGGYGGGGGGSR [_GGNFGGR(Methyl (R))GGYGGGGGGSR_]
collision cross section [22]: 462.43 ± 2.7 Å²

VIVGGSSEYK [_VIVGGSSEY(Phospho (Y))K_]
collision cross section [7]: 358.71 ± 0.065 Å²

IHNAENIQPGEQKYEYK [_IHNAENIQPGEQK(Formyl)YEYK_]
collision cross section [11]: 518.35 ± 1.3 Å²

IHVQSSSDSSDEPAEKR [_IHVQSSSDSSDEPAEK(Propionyl)R_]
collision cross section [23]: 506.45 ± 1.4 Å²

GPQNATDSYVHK [_GPQNATDSY(Nitro (Y))VHK_]
collision cross section [20]: 386.3 ± 0.94 Å²
collision cross section [21]: 449.51 ± 0.23 Å²

IPAASAAAMNLASAR [_IPAASAAAMNLAS(HexNAc (ST))AR_]
collision cross section [12]: 422.38 ± 0.62 Å²

INNFSADIKDSK [_INNFSADIK(Methyl (K))DSK_]
collision cross section [24]: 401.35 ± 2.2 Å²
collision cross section [25]: 451.47 ± 4.8 Å²

GTGRGGGGGGGGGAPR [_GTGR(Citrullination (R))GGGGGGGGGAPR_]
collision cross section [26]: 349.34 ± 0.64 Å²

ILDLKTGTVK [_ILDLK(Gluratylation)TGTVK_]
collision cross section [15]: 368.56 ± 0.72 Å²

DESFLGKLGGTLAR [_DESFLGK(hydroxyisobutyryl)LGGTLAR_]
collision cross section [13]: 419.07 ± 0.83 Å²
collision cross section [14]: 498.29 ± 2.3 Å²

VLSIGDGIAR [_VLS(HexNAc (ST))IGDGIAR_]
collision cross section [12]: 372.66 ± 0.12 Å²

KYEEIDNAPEER [_K(Propionyl)YEEIDNAPEER_]
collision cross section [8]: 411.41 ± 0.64 Å²
collision cross section [23]: 491.8 Å²

LGSPSGKTGTCR [_LGSPSGK(GlyGly (K))TGTCR_]
collision cross section [1]: 454.35 ± 1.5 Å²

YILIPASQQPK [_Y(Phospho (Y))ILIPASQQPK_]
collision cross section [7]: 405.41 ± 0.64 Å²

GRGAPPPPPSR [_GR(Methyl (R))GAPPPPPSR_]
collision cross section [27]: 339.22 Å²
collision cross section [22]: 437.5 Å²

ITESVAETAQTIKK [_ITESVAETAQTIK(Gluratylation)K_]
collision cross section [15]: 429.83 ± 0.97 Å²
collision cross section [16]: 514.64 ± 1.7 Å²

DFAFYNPRLQGK [_DFAFYNPR(Citrullination (R))LQGK_]
collision cross section [26]: 400.16 ± 0.22 Å²
collision cross section (charge state: 3, modification: Citrullination (R)): 473.76 Å²

ALASIDSKLNQAK [_ALASIDSK(Propionyl)LNQAK_]
collision cross section [8]: 398.32 Å²

LTSLNVKYNNDK [_LTSLNVK(hydroxyisobutyryl)YNNDK_]
collision cross section [13]: 415.97 ± 0.31 Å²

VNVEAPDVNLEGLGGKLK [_VNVEAPDVNLEGLGGK(Methyl (K))LK_]
collision cross section [24]: 464.13 ± 2.6 Å²
collision cross section [25]: 541.64 ± 0.51 Å²

IHVQSSSDSSDEPAEKR [_IHVQSSSDSSDEPAEK(Malonyl)R_]
collision cross section [9]: 452 ± 1.6 Å²
collision cross section [28]: 506.71 ± 1.6 Å²

VYIASSSGSTAIKK [_VYIASSSGSTAIK(Formyl)K_]
collision cross section [10]: 408.95 ± 1.8 Å²
collision cross section [11]: 497.96 ± 1.5 Å²

GSLEKGSPEDK [_GSLEK(Trimethyl (K))GSPEDK_]
collision cross section [29]: 363.82 ± 0.64 Å²
collision cross section [17]: 436.7 ± 2.4 Å²

LQAAYAGDKADDIQK [_LQAAYAGDK(Methyl (K))ADDIQK_]
collision cross section [24]: 430.05 ± 1.4 Å²
collision cross section [25]: 477.97 ± 2.6 Å²

ASPPLFQSR [_ASPPLFQS(HexNAc (ST))R_]
collision cross section [12]: 363.62 ± 0.64 Å²

SLEEEGAAHSGKR [_SLEEEGAAHSGK(Propionyl)R_]
collision cross section [8]: 416.58 ± 0.64 Å²
collision cross section [23]: 480.52 ± 0.66 Å²

VGEFSGANKEK [_VGEFSGANK(hydroxyisobutyryl)EK_]
collision cross section [13]: 364.17 ± 0.9 Å²
collision cross section [14]: 444.77 Å²

KYEEIDNAPEER [_K(Malonyl)YEEIDNAPEER_]
collision cross section [9]: 410.49 ± 0.6 Å²
collision cross section [28]: 491.92 ± 5.7 Å²

PGGEGPQCEKTTDVK [_PGGEGPQCEK(Butyryl)TTDVK_]
collision cross section [19]: 421.37 ± 0.77 Å²

SITHSTVGSKGEK [_SITHSTVGSK(Succinyl)GEK_]
collision cross section [3]: 392.73 ± 1.4 Å²
collision cross section [4]: 442.37 ± 2.9 Å²

GEAGPTGPQGEPGVR [_GEAGPTGPQGEP(Hydroxyproline)GVR_]
collision cross section [30]: 382.58 ± 0.36 Å²

VGVEVPDVNIEGPEGKLK [_VGVEVPDVNIEGPEGK(hydroxyisobutyryl)LK_]
collision cross section [13]: 459.37 ± 1.3 Å²

IHNAENIQPGEQKYEYK [_IHNAENIQPGEQK(Acetyl (K))YEYK_]
collision cross section [18]: 481.31 Å²
collision cross section (charge state: 3, modification: Acetyl (K)): 525.52 ± 2.1 Å²

FLQEFYQDDELGKK [_FLQEFYQDDELGK(Crotonyl)K_]
collision cross section [2]: 450.33 ± 0.0083 Å²

ASNAAVKLAESK [_ASNAAVK(Gluratylation)LAESK_]
collision cross section [15]: 379.86 ± 0.1 Å²

VGTASVLQPVKK [_VGTASVLQPVK(Propionyl)K_]
collision cross section [8]: 382.42 ± 0.33 Å²

TEVLSPNSKVESK [_TEVLSPNSK(Trimethyl (K))VESK_]
collision cross section [29]: 405.78 ± 0.61 Å²
collision cross section [17]: 479.92 ± 1.6 Å²

LTSLNVKYNNDK [_LTSLNVK(Succinyl)YNNDK_]
collision cross section [3]: 411.65 ± 1.1 Å²

GIGRGTVQALHATGAR [_GIGR(Methyl (R))GTVQALHATGAR_]
collision cross section [22]: 502.48 ± 1.9 Å²

VGYPGPSGPLGAR [_VGYP(Hydroxyproline)GPSGPLGAR_]
collision cross section [30]: 356.91 ± 0.79 Å²
collision cross section (charge state: 3, modification: Hydroxyproline): 437.31 ± 1.7 Å²

ASAISIKLGSSK [_ASAISIK(Crotonyl)LGSSK_]
collision cross section [2]: 374.63 ± 0.89 Å²

SVSSSSYR [_SVSSSSY(Phospho (Y))R_]
collision cross section [7]: 317.55 ± 0.69 Å²

GGSGGRGVSVSSAR [_GGSGGR(Methyl (R))GVSVSSAR_]
collision cross section [27]: 384.84 ± 7.6 Å²
collision cross section [22]: 464.84 ± 13 Å²

AAQASDLEKIHLDEK [_AAQASDLEK(Gluratylation)IHLDEK_]
collision cross section [15]: 471.95 ± 1.5 Å²
collision cross section [16]: 503.34 ± 1 Å²
